Assay results taken from patent publication US20120225028A1, “COMPOSITIONS AND METHODS FOR MOBILIZATION OF STEM CELLS” (priority 2011, published 2012).

B1: rhG-CSF: recombinant human granulocyte colony-stimulating factor (Amgen) (protein, UniProt P09919 31-207, looked up)
Granulocyte …: TPLGPASSLPQSFLLKCLEQVRKIQGDGAALQEKLVSECATYKLCHPEELVLLGHSLGIPWAPLSSCPSQALQLAGCLSQLHSGLFLYQGLLQALEGISPELGPTLDTLQLDVADFATTIWQQMEELGMAPALQPTQGAMPAFASAFQRRAGGVLVASHLQSFLEVSYRVLRHLAQP

Key:
GM-CFC = assay: Hematopoietic progenitor colony forming assay of WBC from treated mice; format: in vivo; conditions: for Number of GM-CFC (n = 3): median colony number per 200,000 cells plated, methylcellulose culture, 10 days of incubation, triplicate cultures; for Type of colonies formed in cultures of WBC: methylcellulose colony assay
Method: WBC from treated mice were also plated in standard hematopoietic progenitor colony forming assays. Colony formation from cultures of 200,000 cells per 35 mm petri dishes were scored at 10 days of culture.
The median colony number pre 200,000 cells plated is presented from 3 triplicate cultures containing 1 ml of methycellulose plus rmIL-3, rmGM-CSF, rrSCF and rhG-CSF.

mesenchymal stem cells = assay: Mouse model of mobilization: MSC formation in culture of peripheral blood WBC from treated mice; format: in vivo; conditions: for Stromal cell formation in cultures of WBC: SP 10 μg/kg or rhG-CSF 250 ug/kg i.p. for 4 days, PB harvested on fifth day; for Stromal cell formation in cultures of WBC / MSC / adherent stromal cell formation after 5 to 7 days of culture: 35 mm wells; for MSC / adherent stromal cell formation after 5 to 7 days of culture / MSC foci after 10 days of culture: SP 10 μg/kg, i.p. 4 days; for MSC / adherent stromal cell formation after 5 to 7 days of culture: rhG-CSF 250 μg/kg or both; for MSC foci after 10 days of culture: rhG-CSF 250 μg/kg
Method: To evaluate the potential of different mobilization agents, a mouse model of mobilization was used. Groups of mice (n=5) were treated with cytokines or mobilization agents and peripheral blood harvested into heparin containing tubes. The blood was treated with ammonium chloride to lyse the red cells and the white cells plated in 6 well plates treated with gelatin and evaluated for MSC formation at various time points.
Mice were injected intraperitoneally with 250 ug/kg of rhG-CSF (Amgen Inc, Thousand Oaks, Calif.) or normal saline for 5 days and PB harvested on the fifth day. The white cells were plated in media from Stem Cell Technologies (Vancouver, Canada) for culture of mesenchymal stem cells with murine supplements.
Mice (groups of 5 mice per treatment arm) were injected intraperitoneally with 10 μg/kg of Substance P (Sigma-Aldrich, St Louis, Mo.) or with 250 ug/kg of rhG-CSF for 4 days and PB harvested on the fifth day. The white cells were plated in media from Stem Cell Technologies (Vancouver, Canada) for culture of mesenchymal stem cells with murine supplements.
Mice (groups of 5 mice per treatment arm) were injected intraperitoneally with 10 μg/kg of Substance P (Sigma-Aldrich, St Louis, Mo.), with 250 μg/kg of rhG-CSF, or the combination of 10 μg/kg SP plus 250 μg/kg rhG-CSF for 4 days and PB harvested on the fifth day. The white cells were plated in media from Stem Cell Technologies (Vancouver, Canada) for culture of mesenchymal stem cells with murine supplements.

peripheral blood WBC [1] = assay: Peripheral blood WBC counts of treated mice; format: in vivo; conditions: 7 day treatment
Method: G-CSF mobilization increases the circulating WBC count in mice and humans with typical counts approximately 25,000 to 30,000 WBC/μl. The effects of the combination of SP+G-CSF on peripheral WBC in treated mice was evaluated.
The different effects on peripheral WBC count of mobilization agents used were established.

peripheral blood WBC [2] = conditions: mice and humans, general statement; cited from earlier work
MSCs or MSC precursors = assay: Culture of rhG-CSF mobilized peripheral blood from normal donors under MSC conditions; format: in vivo; conditions: normal human donors mobilized with G-CSF, standard MSC culture
Method: Normal unmobilized PB and PB from normal donors mobilized with rhG-CSF was obtained and the potential of the MNCs to generate MSCs was evaluated. When placed in standard culture there was development of adherent cells that appeared like adipocyte cells and endothelial cells (FIG. 1).

Molecule | Number of GM-CFC (n = 3) (GM-CFC) | Type of colonies formed in cultures of WBC (GM-CFC) | Stromal cell formation in cultures of WBC (mesenchymal stem cells) | MSC / adherent stromal cell formation after 5 to 7 days of culture (mesenchymal stem cells) | MSC foci after 10 days of culture (mesenchymal stem cells) | Blast like cells on cytospin slides of WBC (mesenchymal stem cells; WBC from SP treated mice) | Effect on peripheral blood WBC levels (peripheral blood WBC [1]) | Typical circulating WBC count after mobilization (peripheral blood WBC [2]) | MSC formation from mobilized peripheral blood cells (MSCs or MSC precursors) | MSC formation from mobilized peripheral blood cells (MSCs or MSC precursors; listed as G-CSF) | Adherent cells in cultures of WBC (mesenchymal stem cells; 250 ug/kg intraperitoneally for 5 days, PB harvested on the fifth day)
Substance P (RPKPQQFFGLM; printed: Arg Pro Lys Pro Gln Gln Phe Phe Gly Leu Met) [SP, Sigma-Aldrich, reference compound] | 5 | colonies containing both hematopoietic and MSC cells | generated adherent stromal cells after 5 to 7 days with several foci | a few adherent stromal cells | several MSC foci | increase in blast like cells | no significant effect | – | – | – | –
B1 | 26 | Typical hematopoietic colonies | no stromal cell formation evident | one area with MSC cells | one foci | – | – | 25,000 to 30,000 WBC/μl | no evidence of MSC formation | fail to generate mesenchymal stem cells | failed to proliferate and resembled endothelial cells not MSCs
